Experimental data taken from patent US20110065176A1.

Target: KDR(ECD1-3)-Fc (human) (UniProt P35968)
Test: BIAcore; KDR(ECD1-3)-Fc immobilized on CM5 chip, IgG in flow

Chain of KDR(ECD1-3)-Fc (human) (P35968 other isoform, or with tags, fused parts or gaps limits assumed, form in doubt): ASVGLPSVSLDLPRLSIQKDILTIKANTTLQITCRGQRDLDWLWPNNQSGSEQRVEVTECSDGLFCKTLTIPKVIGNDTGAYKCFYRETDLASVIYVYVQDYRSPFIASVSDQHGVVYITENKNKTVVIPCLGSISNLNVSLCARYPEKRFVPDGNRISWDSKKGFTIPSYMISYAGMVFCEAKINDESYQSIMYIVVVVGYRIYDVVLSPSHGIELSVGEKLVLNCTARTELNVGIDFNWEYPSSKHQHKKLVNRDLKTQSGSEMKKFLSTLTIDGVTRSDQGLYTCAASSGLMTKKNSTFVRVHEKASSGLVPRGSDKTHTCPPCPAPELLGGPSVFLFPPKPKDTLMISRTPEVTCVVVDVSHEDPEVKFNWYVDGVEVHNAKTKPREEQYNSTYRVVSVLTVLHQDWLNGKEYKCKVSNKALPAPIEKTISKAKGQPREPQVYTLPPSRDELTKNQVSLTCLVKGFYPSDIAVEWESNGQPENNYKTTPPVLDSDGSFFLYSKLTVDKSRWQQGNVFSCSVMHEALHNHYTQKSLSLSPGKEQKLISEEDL

- Kd: 0.385 nM
- koff: 8.75e-05 s⁻¹
- kon: 227000 M⁻¹ s⁻¹
Substance: IMC-1121 IgG (reconstructed) (antibody)
